Our source for the Kd values is patent publication US20200165323A1 (PANASONIC INTELLECTUAL PROPERTY MANAGEMENT, published 2020).

The experiment concerns the target recombinant nucleoprotein (NP) protein derived from influenza virus H1N1 to which a Flag tag was fus (influenza virus H1N1).

Chain of recombinant nucleoprotein (NP) protein derived from influenza virus H1N1 to which a Flag tag was fus (influenza virus H1N1) (P03466 whole entry): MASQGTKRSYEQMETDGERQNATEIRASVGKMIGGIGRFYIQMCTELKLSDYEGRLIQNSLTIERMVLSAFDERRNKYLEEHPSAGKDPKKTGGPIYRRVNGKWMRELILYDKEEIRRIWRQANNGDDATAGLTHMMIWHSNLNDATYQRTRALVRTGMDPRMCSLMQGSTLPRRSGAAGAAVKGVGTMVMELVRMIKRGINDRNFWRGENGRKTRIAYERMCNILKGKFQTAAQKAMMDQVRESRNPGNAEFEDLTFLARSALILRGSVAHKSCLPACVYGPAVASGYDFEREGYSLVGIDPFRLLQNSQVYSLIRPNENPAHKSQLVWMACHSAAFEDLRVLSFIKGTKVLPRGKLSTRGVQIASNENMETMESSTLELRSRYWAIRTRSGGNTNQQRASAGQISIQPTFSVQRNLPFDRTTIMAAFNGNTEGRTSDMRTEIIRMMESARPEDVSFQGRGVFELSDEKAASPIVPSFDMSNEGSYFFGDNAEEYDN

B1: VHH antibody consisting of the amino acid sequence represented by SEQ ID NO: 8 (VHH)
VHH: QLQLVESGGGLVQAGGSLRLSCAASGSAFSLYAMGWHRQAPGKQRELVAYITNGDITNYADSVQGRVIISRDNAKNTVYLHMNSLKPEDTAVYYCYAVGGRTFWGQGTQVTVSS
What is called Kd is the constant that tells how readily two partners part at equilibrium. Regarding B1, the Kd was 1.09 nM.
